test: soluble on expression in E. coli; label from the status in PepcDB or PDB records

Sequence	soluble on expression in E. coli
GSGTMEKGTFTLKDIYKQIEAMNKMGPVRKIFEMLPFGLGLKVDNDVMEMTQEKMKKFRVIMDSMTEEELLNPKIIDSSRIRRIAIGSGTSPQEVKELLNYYKTMKNLMKKMKKNKLPI	soluble
MKVLITSGGTTEPIDNVRGISNFATGSLGKVTAENFLNAGHEVYLLAGLQAKLPEFTDRLTYIPIEGTHDLYEQMKNLVPDMDVVIHSMAVSDYRPIYMTGLENFTDKFSKEELLNFRPEKVGKISSKSDYQIMLLEKTPKIISYIKEWNPNVLLFGFKLLVGVEKSELLSVAREKLLTNHADFILANDLENIHGNDHQAFLVSKNHEITLKTKAEIADRLLKTSEELKND	soluble
MTDTQVTWLTQESHDRLKAELDQLIANRPVIAAEINDRREEGDLRENGGYHAAREEQGQQEARIRQLQDLLSNAKVGEAPKQSGVALPGSVVKVYYNGDKSDSETFLIATRQEGVSDGKLEVYSPNSPLGGALIDAKVGETRSYTVPNGSTVSVTLVSAEPYHS	soluble
MGSDKIHHHHHHMIHSETFAEIATLKERNLIALKEAREAGRHAVGTYCLFSPTELILAAGAIPVSLCGTSQKPIPAAEKVLPRNLCPLIKSSYGFAVTDTCPYFHFADFLLAETTCDGKKKMYELLGELKPIHVMQLPQIQDEAALDYWLMEIGRLKTRLEREFGVRITDKALTEAIRLMNEERRSLQALQDVCKAIPSPISGLDLLTVLHNRGFSVDRRAAIELVDRFAAELRQMAAAGISPFTESTPRILLTGVPVGVGSEKLIRIIEESGASVVCLESCGAYKKVEQVREGGDPLRAIAERYLKVPCSCMSPNTGRLELVERLTREFRVDGVVDLTWLGCHTYAVESSVLKKHLQQRTGLPFLQIETDYSESDTGQLKVRVEAFLEIVHRSMKRTA	not soluble
MVADIELDAAQSIAAVLFDKDGTLLGYDASWGPVNRELASIAAKGDAALADRLLAACGMDPVTGHVVPDSLLAAGNTAEIAAGLVAAGSSCDVVELTQRLDRLFTEAADKSVPVTDLKAFFARLKARGYKLGIASSDNENSIRQTAIRFGFEEDIDFVAGYDSGYGTKPQPGMVLGFCEAIGFPPERVAVVGDNNHDLHMAKNAGAGLRIAVLTGTGSRESLGADAHYCFDDITGLEALLPERAV	not soluble
AHHHHHHGSSEVYRLTCIVCPLSCSIEVEIEAGKIKDIKGYTCPRGKEWAIEEIRAPKRVVMSVIPVEGGKLPTVSVKTEKPIPKDKIPELMKMLAKLKLKAPVKVGQVVGEFEGVKIIATREA	soluble
MTSRMQPKSGVYSVSKADFTKIFEDVPKVPITSAVDLRNKFDAVRIILSNSSEDWNKRQTQLKTVRSLVIHGEKVVDRPTMIAHLVQLLGCFELAVKDLRSQVLREAAITCSFIVSKYGIETHSIGEDILVPAMSQVAVSTKIMATSASTLTEFIVEYVQTRQVFTILSSFSTSKDKSQRRQLAALLEIVISKWSDRIKKQIMRQICELIKSAINDADSETRAAGRRAFAKLDEMHSEEADALYLELDHSKQKMLRGGDAASSWASVNSEKGSIPIRSKLSAGSKAHMNISAISEKKEGIKKLLPIVADTSLNPIEIKNIGNCLNRLLSDASNTMVLEIYSIFVRTHSSRLSEWLRLALAKLFARKAAETLPNTKKQIGHTLNVILECFNAHHQLVTVCELMCDPIHLMVPKARVVLLEYLTSLLDEYTEPGASINAKELKTAIRKMLTWASDPRLSILLTPHVEKAICSMFCVNVADFSALISDLDSEQKNWIHQTLQRNGLENGISSNNIATNSGATASRETSNTSFQKESTSFGLPEFGARKGGTGVNLGSLNISNNLALSRLEEQSTSRLMEKVNLNSTVTLPPDTLEKIQNVQDLLQKMRSSENADEQESAISSIYMMICDGGFGVWEQCYAKLLLNLFEILSKSRSENNKKMCLRILGKMCTAQAAKLFDSTEMAVCKVLDAAVNTNDATTALAVEDCLRTLATHLPLSNIINIAKVILNQEPIDDERASLVLKMVTRLFEELPAEELNNIVDDITPTIIKAYQSTSSTVRKTVVYCLVAMVNRVGEQRMTPHFTKLPKAMTNLIQVYVNRAISTSLPRL	not soluble
MGSDKIHHHHHHMEDLQRLYPIGIQTFSKIREGNFLYVDKTEYVYRMTHSASSYMFLSRPRRFGKSLLTSTLHSYFSGREELFRGLAMEKLEKEWIQYPVLHFDMSMAKHVDKDKLMNLLDFMLTEHERTLGIDAAGTDPNLRLTNLIKRAYEQTGRKVVVLIDEYDAPLLDVVHERENLGVLRDVMRNFYSPLKACDPYLRYVFLTGITKFSQLSIFSELNNIKNISMDEPYAAICGITENEILTQMKEDVDRMAVKLNITAEEVLAKLKENYDGYHFTYPSPDIYNPFSLLNAFADGKFNSYWFGSGTPTYLIKMLDKFGVEPSEIGNKLAAVEEFDAPTETMSSITPLLYQSGYVTIKDYDKELELYTLDIPNKEVRVGLMRSLLPYYVTNDTREATNMVAFISRDIR	not soluble
MCGRFAQAQTREEYLAYLADEADRNIAYDPQPIGRYNVAPGTKVLLLSERDEQLHLDPVIWGYAPGWWDKAPLINARVATAASSRMFKPLWQHGRAICFADRWFEWKKEGDKKQPYFIHRKDGKPIFMAAIGSTPFERGDEAEGFLIVTSAADKGLVDIHDRRPLALTPETARVWMRQFLEPHSKSITYRVIPALTRPMMRKDTNPCQLEHHHHHH	not soluble
MGSDKIHHHHHHMESLSEGTTAGYQQIHDGIIHLVDSARTETVRSVNALMTATYQEIGRRIVEFEQGGEARAAYGAQLIKRLSKDLCLRYKRGFSAKNLRQMRLFYLFFQHVEIHQTMSGELTPLGIPQTPSAEFPSAKIWQTLSAKSFPLPRSTYVRLLSVKNADARSFYEKETLRCGWSVRQLERQIATQFYERTLLSHDKSAMLQQHAPAETHILPQQAIRDPFVLEFLELKDEYSESDFEEALINHLMDFMLELGDDFAFVGRQRRLRIDDNWFRVDLLFFHRRLRCLLIVDLKVGKFSYSDAGQMNMYLNYAKEHWTLPDENPPIGLVLCAEKGAGEAHYALAGLPNTVLASEYKMQLPDEKRLADELVRTQAVLEEGYRRR	not soluble
MGSDKIHHHHHHMSEIASTKARKRCAVYCRVSSDERLDQEFNSIDAQKEAGHAYVASQRSEGWISVADDYDDPGFSGGNTDRPGLKRLMADIERGQIDIVVVYKIDRLTRSLADFSKMVEVFERHEVSFVSVTQQFNTTTSMGRLMLNVLLSFAQFEREVTGERIRDKIAAAKRKGMWMGGVPPLGYDVDNRLLVINETEAAVVRRIFEEMLTIGSPTQIAVNLTADGITNKAWTTQEGQTRNGTRIDKKYLHNLLRNRIYLGELSHKGNWYPGAHLPIIDRELWDKVHAVLARDGHARSVETKIRSRTDALLRGLLYAPSGERMYPTYSRKNGRKYHYYVSKSESRFGAPGKSY	not soluble
RQLALEAKGETPSAVTRLSVVAKSEPQDEQSRSQSARRIILSRLKAGEVDLLEEELGHLTTLTDVVKGADSLSAILPGDIAEDDITAVLCFVIEADQITFETVEVSPKISTPPVLKLAAEQAPTGRVEREKTTR	soluble
MAEETIFSKIIRREIPSDIVYQDDLVTAFRDISPQAPTHILIIPNILIPTVNDVSAEHEQALGRMITVAAKIAEQEGIAEDGYRLIMNTNRHGGQEVYHIHMHLLGGRPLGPMLAHKGL	soluble
MRSVLQSEVSECGLASLAMVANAHGKHLTLSQLRQRFPSSLKGAKLTHLVHIAQQLGFSTRPLRLDMEDLGKLKLPCILHWDLNHFVVLAKVGTTKVTIYDPAIGKRKLSLNEVSKYFTGIALELTTTTE	not soluble
MIVDLPDTTTTAVNKKLDELREKIGAVAMGRVLTLIIAPDSEAMLEESIEAANDASHEHPSRIIVTMRGDPYADRPRLDAQLRVGADAGAGEFVVLRLSGPLAGHADSVVIPFLLPDIPVVAWWPDIAPAVPAQDALGKLAIRRITDATNAIDPLSAIKSRLAGYGAGDTDLAWSRITYWRALLTSAVDQPRHEPIESALVSGLKTEPALDVLAGWLASRIEGPVRRAVGELKVELVRNSETIVLSRPQEGITATLTRTGKPDALVPLARRVTGECLAEDLRRLDPDEIYCAALEGIKKVQYR	not soluble
SNAMKRKVQVKNITIGEGRPKICVPIIGKNKKDIIKEAKELKDACLDIIEWRVDFFENVENIKEVKEVLYELRSYIHDIPLLFTFRSVVEGGEKLISRDYYTTLNKEISNTGLVDLIDVELFMGDEVIDEVVNFAHKKEVKVIISNHDFNKTPKKEEIVSRLCRMQELGADLPKIAVMPQNEKDVLVLLEATNEMFKIYADRPIITMSMSGMGVISRLCGEIFGSALTFGAAKSVSAPGQISFKELNSVLNLLHKSIN	soluble
MDKIASDKDLREPDAGLLLNIFDLYYDLASAPAQYAAKRAHILEAAKKASTWHIRHVAPKYKNYVVVIGESARSDYMNVYGFPLPDTPFLSQTKGLLINGYQSTAHATNLSLPQTLGLPGEPNNNIVSLAKQAGFRTAWLSNQGMLGHFANEISTYALRSDYPWFTQRGDYGKSAGLSDRLLLPAFKRVLIGNAGTKPRLIVMHLMGSHSDFCTRLDKDARRFQYQTEKISCYVSTIAQTDKFLEDTVKILNENKESWSLVYFSDHGLMHVGKGGERTLTHGAWKRQSYGVPLVKISSDDTRREMIKVRRSAFNFLRGFGSWTGIETDELPDDGYDFWGNVPDVQGEGNNLAFIDGLPDDPAPWYAGKGKSTKNTSKK	not soluble
SGCRCCKIIQSYLFDPVQVPSPGYVNEVNSCKLDEDDTDKLKGKWSSEVLVQKNDPQRQGSKKTESSSRTADPWEPCWPHQGPLPQGDAGGEHHACGVNGIGPAATPQPTGNSSPTQDDRGSWASTANTVPPTQPFLEGGGTRKQDCVLLASEGTQVMRNGDSRAPSEAESFALEVQDHVFQIPAPDYLQHWGPAGDNVDHNEKDCVFKNHTEDESLEGIQPPVGEHGLNTPFSVRRSWDSLNEDVETEVLSICFNEKGPVHAMPVVDSGNRQEDTHGSDGDGDGEIVDEDAAVAEALAALEAATAGEDLDETD	soluble
MAHHHHHHMSFVVIRLLEVLPTQVRTQLTANAEYVVSVSSAQRLSTFCSQGPYAATRLQLSDFDGAARLWEPQWNVVEALPATKEVHDVSRVCAVYRGNSGVTAFAFIDEHGTVLATTRWVDCALSTVSGRERAVLQAAQLRKLFTQCRPTVMAIGASSIACLPLLRTLETFLREQVHQSAVVDVPVVWASVEVPRYYSVTTYARLELPQTENIVVTSVALARYVQDPLQVLCSLFEGEQTALQLCRTIRISASHDRQLYQASGVGDEPVGGGGGPVGRRYCVPPQHCRDAAVCSRPRPRQSACVGQCHPSLRRSAKSTASGAASGTLRGRHRAERRAGAARSLAGAMRRGAPVAPSRCNADPVAVVRDRLFGGKGDCLLIDAAGRSVASRAAWNGAGGAPGCTLPRRRAFYGCQGQGECGGPGRRGSS	not soluble
GPGSMAHLFFTGACAAAAALPISDREEVSPVWSIYDDYCCGASQHAEVDDPQVEGEGVGNCGGTTPPRLPFISGPVSSMTLKGAQLKKEAPIRRGAQGAVYSALDVATSAPAEDEKAKGLFSPEACRGHEGEAQVADGGQRPARRGRRVAVKRIFIQASDFGARDISATVLREVTLHRFVSEKQAACLAAAGAFYPTGSTSDATALAEADQGQTLCNLIDDSARVIHLYRVVEAPHKEMCLVMELAATNLEQVVFPHGARGASRGDGAGGYKRKPGVVSLFGSSASIGVGGGLGLSSASPSTAPDAATAEVGPQASSPSPPPSRMPLVRYVMRRLLRLVCFLHETCCVVHRDLKLSNVLVSKDAGLRLGDFGSARFIPPLRSATKTGVENSPSVPEPPAAPAGQREHLLCTPPSIRTTLHYRPPEALLGDQVCRTAADVWALGVIFAQLLLQKGLFHSESELDLLGAIQKLLGMPTYSAPPSWLAAPSVPGPPRERESAAHVPAPQASLPYKFHTGVVPADGLDLLSRMLHQQPECRVTAREALQHPFLNLEGLSAAATHDDDERGRVLWEERVATVLREQATGHIYGMGGGERRPMLISLADNEDEEDQEDDEVGVAPFCVNLGGCTSY	not soluble
